Consider two molecules from patent publication US20240068004A1 (MBRACE THERAPEUTICS, published 2024).

Common to all, as to assay: alanine scan, high-throughput flow cytometry
In assay [1] the target is T1, GRP78 alanine scanning variant R261A (human, UniProt P11021 19-654).
T1 construct: Member of the alanine scanning library of GRP78
How it is done: (§1) To characterize the binding properties of the antibodies described in Example 1 for GRP78, epitope mapping analysis was carried out by alanine scanning mutagenesis. An alanine scanning library of GRP78 was constructed. Each anti-GRP78 antibody was then screened for binding to each individual GRP78 variant, allowing identification of the target protein residues involved in antibody binding.
(§2) Binding of each test antibody to each GRP78 variant in the alanine scanning library was determined by high-throughput flow cytometry under high stringency conditions (e.g., increased pH, increased salinity, increased temperature and/or increased wash time). Also included in the experiment was a commercially-available monoclonal antibody, 1H11-1H7, which was verified to bind to the wildtype (WT) GRP78 on cells and thus determined to be a suitable positive control under these conditions (Thermo Fisher Scientific, Waltham, MA). Antibody binding to each of the GRP78 variants as measured by the fluorescence signal (raw fluorescence data minus the background), was normalized to its binding to the WT GRP78. For each GRP78 variant, such normalized binding to the test antibodies was plotted relative to that to the control antibody.

Assay [2] deals with T2, GRP78 alanine scanning variant E329A (human, UniProt P11021 19-654).
T2 construct: Member of the alanine scanning library of GRP78
T2 sequence (P11021 19-654 E329A limits assumed): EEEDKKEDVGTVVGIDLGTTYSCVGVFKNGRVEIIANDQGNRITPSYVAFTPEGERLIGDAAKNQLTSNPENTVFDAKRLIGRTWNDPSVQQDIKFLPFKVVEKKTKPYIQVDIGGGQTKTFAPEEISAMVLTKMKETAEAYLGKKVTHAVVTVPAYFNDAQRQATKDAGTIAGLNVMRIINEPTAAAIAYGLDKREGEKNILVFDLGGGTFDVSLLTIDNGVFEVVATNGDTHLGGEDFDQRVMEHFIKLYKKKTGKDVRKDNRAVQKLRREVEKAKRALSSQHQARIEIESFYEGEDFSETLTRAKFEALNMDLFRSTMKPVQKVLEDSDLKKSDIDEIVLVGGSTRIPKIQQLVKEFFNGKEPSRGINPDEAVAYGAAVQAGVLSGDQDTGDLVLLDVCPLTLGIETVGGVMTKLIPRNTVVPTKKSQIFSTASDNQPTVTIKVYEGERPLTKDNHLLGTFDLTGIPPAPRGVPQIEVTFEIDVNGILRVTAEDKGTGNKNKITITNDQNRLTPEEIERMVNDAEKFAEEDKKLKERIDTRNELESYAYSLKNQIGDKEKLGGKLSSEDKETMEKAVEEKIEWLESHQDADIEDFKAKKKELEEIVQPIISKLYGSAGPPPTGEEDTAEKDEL
How it is done: as §1, §2

Assay [3] concerns the target T3, GRP78 alanine scanning variant H265A (human, UniProt P11021 19-654).
T3 construct: Member of the alanine scanning library of GRP78
How it is done:
as §1, §2

Assay [4] addresses T4, GRP78 alanine scanning variant R279A (human, UniProt P11021 19-654).
T4 construct: Member of the alanine scanning library of GRP78
Here is the method: as §1, §2

A value given as a limit tells only on which side of the number the result lay.

T1 sequence (P11021 19-654 R261A limits assumed): as the sequence (P11021 19-654 E329A limits assumed) above, with R243A, A311E counted along it
T4 sequence (P11021 19-654 R279A limits assumed): as the sequence (P11021 19-654 E329A limits assumed) above, with R261A, A311E counted along it
T3 sequence (P11021 19-654 H265A limits assumed): as the sequence (P11021 19-654 E329A limits assumed) above, with H247A, A311E counted along it

B1: anti-GRP78 antibody clone B4 (antibody, IgG1, V domains shown)
VH: QVRLQESGPGLVKPSQTLSLTCTVSGGSISSGGYYWSWIRQHPGKGLEWIGYIYYSGSTYYNPSLESRVTISVDTSKNQFSLKLSSVTAADTAVYYCARYSSIDAFEIWGQGTMVTVSS
VL: SYVLTQPPSVSVAPGKTATITCGGDDIGSKSVHWYQQKPGQAPVLVVYDDGDRPSGIPERFSGSNSGNTATLAISRVEAGDEADYYCQVWDSSSDQYVFGSGTKLTVL
notes: Fully human mAb formatted as full-length IgG1; also called B4 mAb
For the molecule B1, the “% binding normalized to WT GRP78” value in assay [1], in assay [2] and in assay [3] was less than 20% in each case.

B2: anti-GRP78 antibody clone F6 (antibody, IgG1, V domains shown)
VH: QVQLQQSGPGLVKPPQTLSLTCAISGDSVSSNSAAWNWIRQSPSRGLEWLGRTYYRSKWYNDYAVSVKSRITINPDTSKNQFSLQLNSVTPEDTAVYYCARDPYYYDSSGYYYFDAFDIWGQGTMVTVSS
VL: SYELTQPHSVSVAPGQTARITCGGDNIGSKSVHWYQQRPGQAPVLVVYDDSDRPSGIPERFSGSNSENTATLTISGVEAGDEADYYCQVWDSTSHHVVFGGGTKLTVL
notes: Fully human mAb formatted as full-length IgG1; also called F6 mAb
Turning to B2, the “% binding normalized to WT GRP78” value in assay [1] and in assay [4] was less than 20% throughout.
